Data published in WO2001068708A2 (dated 2001).

T1: fibroblast activating protein alpha (FAPα), cell surface-bound (human, UniProt Q12884 1-760)
T1 construct: whole, on cells; Also used as the target of the FAP-specific immunohistological staining of tumour cryo-sections; also called FAP+ cells; FAP overexpressing fibrosarcoma cells (HT1080)
T1 sequence (looked up): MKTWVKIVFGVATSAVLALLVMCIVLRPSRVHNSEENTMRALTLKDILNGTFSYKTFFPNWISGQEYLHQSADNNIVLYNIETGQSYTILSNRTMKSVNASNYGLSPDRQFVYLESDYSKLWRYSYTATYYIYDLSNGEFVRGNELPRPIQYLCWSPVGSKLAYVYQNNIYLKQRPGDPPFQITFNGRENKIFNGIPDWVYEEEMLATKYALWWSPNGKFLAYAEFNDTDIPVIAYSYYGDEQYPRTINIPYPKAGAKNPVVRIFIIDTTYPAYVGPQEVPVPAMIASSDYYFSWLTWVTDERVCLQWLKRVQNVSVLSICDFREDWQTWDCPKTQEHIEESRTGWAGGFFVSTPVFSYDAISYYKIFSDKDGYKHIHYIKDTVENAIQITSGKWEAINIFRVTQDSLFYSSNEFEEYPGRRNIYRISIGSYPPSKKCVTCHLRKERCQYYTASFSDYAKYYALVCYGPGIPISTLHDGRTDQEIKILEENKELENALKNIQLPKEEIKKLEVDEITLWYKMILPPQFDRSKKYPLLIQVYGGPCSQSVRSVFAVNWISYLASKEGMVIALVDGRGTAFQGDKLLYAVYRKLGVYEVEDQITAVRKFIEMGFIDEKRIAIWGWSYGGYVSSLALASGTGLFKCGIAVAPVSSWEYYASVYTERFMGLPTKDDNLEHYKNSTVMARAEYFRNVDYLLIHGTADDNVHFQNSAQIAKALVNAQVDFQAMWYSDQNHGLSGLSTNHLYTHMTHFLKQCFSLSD

T2: fibroblast activating protein alpha (FAPα), purified / immobilised antigen (human, UniProt Q12884 27-760, limits assumed)
T2 construct: Antigen coated on ELISA wells and immunotubes; The construct is not described; also called human FAP; immobilized FAP
T2 sequence (looked up): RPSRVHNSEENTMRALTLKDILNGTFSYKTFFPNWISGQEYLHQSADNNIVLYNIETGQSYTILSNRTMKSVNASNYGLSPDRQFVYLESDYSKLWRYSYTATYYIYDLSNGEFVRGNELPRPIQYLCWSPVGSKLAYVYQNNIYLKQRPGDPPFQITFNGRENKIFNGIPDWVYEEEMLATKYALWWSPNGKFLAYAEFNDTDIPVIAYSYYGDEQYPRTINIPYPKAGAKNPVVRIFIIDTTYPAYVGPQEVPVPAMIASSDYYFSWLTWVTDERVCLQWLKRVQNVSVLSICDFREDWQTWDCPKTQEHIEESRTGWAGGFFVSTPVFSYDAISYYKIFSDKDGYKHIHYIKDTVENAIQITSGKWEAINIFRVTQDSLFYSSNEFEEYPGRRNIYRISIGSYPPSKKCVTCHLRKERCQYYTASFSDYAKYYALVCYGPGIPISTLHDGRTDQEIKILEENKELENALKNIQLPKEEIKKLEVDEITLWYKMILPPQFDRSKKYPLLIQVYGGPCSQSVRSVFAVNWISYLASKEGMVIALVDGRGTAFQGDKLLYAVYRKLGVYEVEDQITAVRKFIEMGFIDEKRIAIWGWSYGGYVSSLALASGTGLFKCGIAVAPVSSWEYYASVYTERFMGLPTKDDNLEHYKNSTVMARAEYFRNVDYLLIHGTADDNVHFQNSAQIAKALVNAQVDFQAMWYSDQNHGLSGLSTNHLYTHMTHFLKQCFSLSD

B1: scFv F19 (parental murine scFv) (scFv, V domains shown)
VH: EVQLQQSGPELVKPGASVKMSCKTSRYTFTEYTIHWVRQSHGKSLEWIGGINPNNGIPNYNQKFKGRATLTVGKSSSTAYMELRSLTSEDSAVYFCARRRIAYGYDEGHAMDYWGQGTSVTVSS
VL: DIVMSQSPSSLAVSVGEKVTMSCKSSQSLLYSRNQKNYLAWFQQKPGQSPKLLIFWASTRESGVPDRFTGSGFGTDFNLTISSVQAEDLAVYDCQQYFSYPLTFGAGTKLELK
B2: scFv #13 as bivalent in minibody format (other)
chain: QVQLVESGGTLVQPGGSLRLSCAASGFTFSSYAMSWIRQAPGKGLEWVSGISASGGYIDYADSVKGRVTISRDNSKNMAYLQMSSLRAEDTALYYCAKGGNYQMLLDHWGQGTLVTVSSASTKGPKLEEGEFSEARVDIQMTQSPSSLSASTGDRVTITCRASQDISSYLAWYQQAPGKAPHLLMSGATTLQTGVPSRFSGSGSGTDFTLTITSLQSEDFATYYCQQYYIYPPTFGQGTRVEIKRTVAAPSVFAA
B3: scFv #50 as bivalent in minibody format (other)
chain: QVQLVESGGGLVQPGGSLRLSCAASGFTFSNYWMSWVRQAPGKGLEWVANIKQDGSEKYYVDSVKGRFTISRDNAKNSLYLQMNSLRAEDTAVYYCARGSLCTDGSCPTIGPGPNWGQGTLVTVSSAPTKAPKLEEGEFSEARVDIQMTQSPSSLSASTGDRVTITCRASQDISSYLAWYQQAPGKAPHLLMSGATTLQTGVPSRFSGSGSGTDFTLTITSLQSEDFATYYCQQYYIYPPTFGQGTRVEIKRTVAAPSVFAA

Key:
[1] = molecular target: T1, fibroblast activating protein alpha …; assay: flow cytometry on FAP overexpressing HT1080 cells, half maximal saturation (SC50)
[2] = molecular target: T2, fibroblast activating protein alpha …; assay: sandwich ELISA, half maximal saturation of binding (SC50), c-myc tag detection
[3] = molecular target: T1, fibroblast activating protein alpha …; assay: binding to FAP+ cells, cell analyser, half maximal saturation

Binder	EC50 [1] [nM]	EC50 [2] [nM]	EC50 [3] [nM]
B1	20	20	
B2			8 to 12
B3			32
